According to paper PMC10085699:

Experiments:
SETX-HD-R/H = biological target: T1, SETX-HD-R/H (Homo sapiens, UniProt Q7Z333 1674-2677, R2136H); experiment: EMSA
T1 sequence: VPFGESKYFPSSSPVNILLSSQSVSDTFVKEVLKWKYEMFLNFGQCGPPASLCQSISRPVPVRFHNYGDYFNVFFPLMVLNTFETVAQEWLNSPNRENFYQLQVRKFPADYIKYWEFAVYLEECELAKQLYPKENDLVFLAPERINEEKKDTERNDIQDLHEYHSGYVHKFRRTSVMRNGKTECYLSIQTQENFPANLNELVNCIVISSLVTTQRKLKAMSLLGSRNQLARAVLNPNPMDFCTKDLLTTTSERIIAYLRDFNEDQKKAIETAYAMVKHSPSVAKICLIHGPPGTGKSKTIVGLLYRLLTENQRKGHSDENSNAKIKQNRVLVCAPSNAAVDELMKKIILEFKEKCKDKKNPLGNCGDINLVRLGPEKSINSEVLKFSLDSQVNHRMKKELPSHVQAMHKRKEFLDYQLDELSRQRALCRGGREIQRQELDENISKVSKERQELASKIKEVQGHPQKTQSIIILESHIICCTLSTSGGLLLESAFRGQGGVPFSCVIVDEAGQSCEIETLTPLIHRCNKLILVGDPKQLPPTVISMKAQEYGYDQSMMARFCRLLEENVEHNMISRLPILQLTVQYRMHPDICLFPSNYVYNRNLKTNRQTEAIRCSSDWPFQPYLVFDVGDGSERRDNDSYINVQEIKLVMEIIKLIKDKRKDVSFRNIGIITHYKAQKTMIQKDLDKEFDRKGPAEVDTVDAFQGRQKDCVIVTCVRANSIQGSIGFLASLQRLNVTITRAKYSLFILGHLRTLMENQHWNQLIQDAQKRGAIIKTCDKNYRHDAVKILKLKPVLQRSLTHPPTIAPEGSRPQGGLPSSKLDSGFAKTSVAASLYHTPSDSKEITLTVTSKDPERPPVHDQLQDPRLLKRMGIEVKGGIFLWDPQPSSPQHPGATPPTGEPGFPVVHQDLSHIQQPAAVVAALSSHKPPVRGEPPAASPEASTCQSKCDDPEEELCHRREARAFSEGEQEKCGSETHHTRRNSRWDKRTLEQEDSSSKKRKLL

Sen1-HD = biological target: T2, Sen1-HD (UniProt Q00416 1095-1904); experiment: EMSA
T2 sequence: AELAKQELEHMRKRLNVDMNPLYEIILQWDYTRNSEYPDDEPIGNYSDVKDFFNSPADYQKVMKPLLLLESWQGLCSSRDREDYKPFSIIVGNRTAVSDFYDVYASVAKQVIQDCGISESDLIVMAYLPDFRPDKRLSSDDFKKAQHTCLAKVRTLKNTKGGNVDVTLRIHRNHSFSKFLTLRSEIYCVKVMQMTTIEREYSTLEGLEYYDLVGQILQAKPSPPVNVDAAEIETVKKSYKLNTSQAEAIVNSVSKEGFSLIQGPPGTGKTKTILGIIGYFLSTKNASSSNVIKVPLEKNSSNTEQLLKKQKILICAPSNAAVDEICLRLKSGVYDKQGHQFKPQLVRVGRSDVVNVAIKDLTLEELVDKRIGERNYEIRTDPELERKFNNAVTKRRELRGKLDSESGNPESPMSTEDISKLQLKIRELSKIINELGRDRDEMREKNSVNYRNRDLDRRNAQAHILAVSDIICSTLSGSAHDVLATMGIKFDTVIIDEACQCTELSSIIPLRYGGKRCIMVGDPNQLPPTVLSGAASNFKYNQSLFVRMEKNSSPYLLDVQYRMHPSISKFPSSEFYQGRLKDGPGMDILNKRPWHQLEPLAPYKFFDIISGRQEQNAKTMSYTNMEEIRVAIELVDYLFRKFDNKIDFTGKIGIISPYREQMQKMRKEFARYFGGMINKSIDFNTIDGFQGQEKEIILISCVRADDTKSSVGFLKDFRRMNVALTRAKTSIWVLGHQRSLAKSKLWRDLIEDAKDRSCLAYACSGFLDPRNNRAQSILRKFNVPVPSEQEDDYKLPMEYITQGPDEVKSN

B1: ssRNA pRMS678 (61 nt) (ssRNA)
RNA: UUGUCUUCUCAUAAAUUUAAUCCCCGUACGCUUAUACUCCUUUAACUACCCAGUCUUCCCG
B1: binds (SETX-HD-R/H); binds (Sen1-HD).
